Details: Equus caballus, CD; for denaturant m value / denaturant midpoint (higher = more stable) / unfolding free energy: 22 °C, GdnHCl; for Tm / change of melting temperature, mutant - wild type (higher = more stable) / unfolding enthalpy (calorimetric): Thermal, transition: 2, reversible: yes (>83%)
[1] = pH 4.5, sodium acetate buffer 10 mM, NaCl 100 mM, structure 1HRC
[2] = pH 7.4, sodium phosphate buffer 100 mM, structure 1HRC
[3] = pH 4.5, sodium acetate buffer 10 mM, NaCl 100 mM
[4] = pH 7.4, sodium phosphate buffer 100 mM

Chain of Cytochrome c Y68R|M81A, P00004 Y68R M81A (P00004 whole entry Y68R/M81A): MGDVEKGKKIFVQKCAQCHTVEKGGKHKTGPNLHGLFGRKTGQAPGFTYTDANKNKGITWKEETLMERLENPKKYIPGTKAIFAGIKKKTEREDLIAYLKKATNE
Chain of Cytochrome c wild type, P00004 (P00004 whole entry): as the sequence (P00004 whole entry Y68R/M81A) above, with R68Y, A81M counted along it
Chain of Cytochrome c T50V, P00004 (P00004 whole entry T50V): as the sequence (P00004 whole entry Y68R/M81A) above, with T50V, R68Y, A81M counted along it
Chain of Cytochrome c M81A, P00004 (P00004 whole entry M81A): as the sequence (P00004 whole entry Y68R/M81A) above, with R68Y counted along it

Substance	denaturant m value [1] [kcal/mol/M]	denaturant midpoint (higher = more stable) [1] [M]	unfolding free energy [1] [kcal/mol]	Tm [1] [°C]	change of melting temperature, mutant - wild type (higher = more stable) [1] [°C]	unfolding enthalpy (calorimetric) [1] [kcal/mol]	denaturant m value [2] [kcal/mol/M]	denaturant midpoint (higher = more stable) [2] [M]	unfolding free energy [2] [kcal/mol]	Tm [2] [°C]	change of melting temperature, mutant - wild type (higher = more stable) [2] [°C]	unfolding enthalpy (calorimetric) [2] [kcal/mol]	also measured
Cytochrome c M81A, P00004	2.77	2.6	2.77	76	5	83.4	2.46	2.71	6.67	84	-0.1	85.3	
Cytochrome c T50V, P00004	1.6	2.5	3.99	72	1	82.5	2.68	2.7	7.22	86	1.9	83.9	
Cytochrome c Y68R|M81A, P00004 Y68R M81A	2.29	1.4	3.2	55	-16	78.4	2.46	1.7	4.18	71	-13.1	82.2	
Cytochrome c wild type, P00004													denaturant m value [3]: 2.34 kcal/mol/M; denaturant midpoint (higher = more stable) [3]: 2.6 M; unfolding free energy [3]: 6 kcal/mol; Tm [3]: 71 °C; unfolding enthalpy (calorimetric) [3]: 49 kcal/mol; denaturant m value [4]: 2.75 kcal/mol/M; denaturant midpoint (higher = more stable) [4]: 2.7 M; unfolding free energy [4]: 7.43 kcal/mol; Tm [4]: 84.1 °C; unfolding enthalpy (calorimetric) [4]: 86 kcal/mol
